Measurements published in patent US20250032588A1 (Eli Lilly, published 2025).

Biological target: T1, human insulin receptor isoform A (human, UniProt P06213-2 28-1370)
T1 construct: whole, on cells; Tested as P1 membrane preparations of the over-expressing cells; also called hIR-A
Test: competitive radio-ligand binding, [125I]-insulin, membranes of 293EBNA cells over-expressing hIR-A
Procedure: IC₅₀ values are determined from 4-parameter logistic non-linear regression analysis (XLFit version 4.0, IDBS). If necessary, curve top or bottom parameters are set to 100 or 0, respectively.
Reported values for Kᵢ are shown as geometric mean±the standard error of the mean (SEM), with the number of replicate determinations indicated by “n” (Table 1).

Ki [nM]	Binder
10.1	Example 3 fusion protein (SEQ ID NO:17) (Fc fusion) FVNQHLCGSHLVEALELVCGERGFHYGGGGGGSGGGGGIVEQCCTSICSLDQLENYCGGGGGQGGGGQGGGGQGGGGQGGPCPPCPAPEAAGGPSVFLFPPKPKDTLMISRTPEVTCVVVDVSQEDPEVQFNWYVDGVEVHNAKTKPREEQFNSTYRVVSVLTVLHQDWLNGKEYKCKVSNKGLPSSIEKTISKAKGQPREPQVYTLPPSQEEMTKNQVSLTCLVKGFYPSDIAVEWESNGQPENNYKTTPPVLDSDGSFFLYSRLTVDKSRWQEGNVFSCSVMHEALHNHYTQKSLSLSLG
35.6	Example 5 fusion protein (SEQ ID NO:19) (Fc fusion) FVNQHLCGSHLVEALELVCGERGFHYGGGGGGSGGGGGIVEQCCTSTCSLDQLENYCGGGGGQGGGGQGGGGQGGGGQGGPCPPCPAPEAAGGPSVFLFPPKPKDTLMISRTPEVTCVVVDVSQEDPEVQFNWYVDGVEVHNAKTKPREEQFNSTYRVVSVLTVLHQDWLNGKEYKCKVSNKGLPSSIEKTISKAKGQPREPQVYTLPPSQEEMTKNQVSLTCLVKGFYPSDIAVEWESNGQPENNYKTTPPVLDSDGSFFLYSRLTVDKSRWQEGNVFSCSVMHEALHNHYTQKSLSLSLG
3.74	Example 9 fusion protein (SEQ ID NO:23) (Fc fusion) FVNQHLCGSHLVEALELVCGERGFFYTEETGGGGGGGIVEQCCTSICSLYQLENYCGGGGGSGGGGSGGGGSGGGGSECPPCPAPPVAGPSVFLFPPKPKDTLMISRTPEVTCVVVDVSHEDPEVQFNWYVDGVEVHNAKTKPREEQFNSTFRVVSVLTVVHQDWLNGKEYKCKVSNKGLPAPIEKTISKTKGQPREPQVYTLPPSREEMTKNQVSLTCLVKGFYPSDIAVEWESNGQPENNYKTTPPMLDSDGSFFLYSKLTVDKSRWQQGNVFSCSVMHEALHNHYTQKSLSLSPG
24.9	Example 1 fusion protein (SEQ ID NO:12) (Fc fusion) FVNQHLCGSHLVEALELVCGERGFHYGGGGGGSGGGGGIVEQCCTSTCSLDQLENYCGGGGGQGGGGQGGGGQGGGGGECPPCPAPPVAGPSVFLFPPKPKDTLMISRTPEVTCVVVDVSHEDPEVQFNWYVDGVEVHNAKTKPREEQFNSTFRVVSVLTVVHQDWLNGKEYKCKVSNKGLPAPIEKTISKTKGQPREPQVYTLPPSREEMTKNQVSLTCLVKGFYPSDIAVEWESNGQPENNYKTTPPMLDSDGSFFLYSKLTVDKSRWQQGNVFSCSVMHEALHNHYTQKSLSLSPG
